According to PMC12835398:
Where no end group is shown, it is not given here.

Key:
[1] = molecular target: coagulation factor II thrombin receptor/protease activated receptor 1 (F2R/PAR1) (human (endogenous in ES-2)) (UniProt P25116)
[2] = molecular target: coagulation factor II thrombin receptor/protease activated receptor 1 (F2R/PAR1) (human (endogenous in ES-2)) (UniProt P25116); remark: listed apart in the source

Chain of UniProt P25116 (P25116 42-425): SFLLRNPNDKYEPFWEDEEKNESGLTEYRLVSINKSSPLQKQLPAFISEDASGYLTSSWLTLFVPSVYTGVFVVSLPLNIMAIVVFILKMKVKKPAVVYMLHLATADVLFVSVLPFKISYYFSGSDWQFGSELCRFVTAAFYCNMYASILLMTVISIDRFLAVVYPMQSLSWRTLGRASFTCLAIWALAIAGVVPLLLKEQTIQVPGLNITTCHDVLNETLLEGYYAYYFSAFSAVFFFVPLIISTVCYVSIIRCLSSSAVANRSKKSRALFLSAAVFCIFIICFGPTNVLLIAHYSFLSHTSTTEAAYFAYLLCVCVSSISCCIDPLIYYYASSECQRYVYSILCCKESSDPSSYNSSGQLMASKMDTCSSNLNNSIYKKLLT

Binder TFLLRGSGSGSC(DSPE‑PEG2000‑maleimide) (also: on doxorubicin-loaded lipid nanoparticles) [… conjugated to DSPE-PEG-maleimide, on doxorubicin-loaded lipid nanoparticles (LNP-Peptide-DOX)] has a cellular uptake: DOX fluorescence (MFI per cell) of ES-2 cells by flow cytometry after 1 h at 37 °C, about 86 µM drug; LNP-DOX without peptide approximately 2000 [1] of 6000 MFI and a cytotoxicity on ES-2 cells, MTT assay, 24 h; IC50 as DOX concentration; LNP-DOX without peptide 10.16 µM, free DOX 0.6 µM [2] of 1.26 µM.
